{"source": "patent US20140057311A1", "about": "“Device For High Throughput Investigations Of Multi-Cellular Interactions” (priority 2010, published 2014)", "key": {"[1]": {"tested_on": "Human Lung Cancer Cell Line A549 aggregates", "assay": "A549 cancer aggregate break-up/migration in collagen gel with HUVEC monolayer, high throughput microfluidic device", "assay_type": "cell-based", "method": "Red colure cells are from Human Lung Cancer Cell Line A549 were transfected with H2B protein (m-Cherry), and partially disassociated, yielding cell aggregates of random sizes, between 40 um and 70 um. This was aspirated through a 100 micrometer strainer, yielding a media with cell aggregates with radii under 100 micrometers. This was poured through a second 40-micrometer filter, yielding a media with A549 aggregates between 40 and 100 micrometers. The cells were then centrifuged at 800 rpm for 2 minutes, and the media aspirated.\nCollagen gel was prepared by adding 9 microliters of 1 M NaOH to 20 microliters of Phosphate Buffered Solution (BD Bioscience), and then adding 46 microliters of ultrapure H2O. Finally, 125 microliters of Type I Rat Tail Collagen at 2.5 mg/mL (BD Biosciences) were added, and mixed thoroughly.\nThe A549 aggregates were then mixed with the collagen gel, yielding a mixture of aggregates within the gel. Ten microliters of the gel were then injected into the center channel of the device shown in FIGS. 1 and 2, yielding 36 distinct gel-fluid interfaces within the device.\nHuman Umbilical Vein Endothelial Cells were transfected by GFP protein label disassociated, and flowed into the first media channel. Media without cells was added to the second channel. Adding a small bubble of media on each port of the first media channel yielded a hydrostatic pressure gradient, pushing cells to the gel-media interfaces. The pressure gradient was maintained for one hour, before the bubbles were removed. The device was cultured, and imaged at 0, 12, 36, 60, 84, and 108 hours. The endothelial cells were seen to create an endothelial monolayer along the bottom of the media channel, as well as on the gel-media interface.\nIn the control group, no drugs were added to the system. In the experimental group, the commercial cancer anti-metastatic drug Iressa (AstraZeneca), an EGFR-TK enzyme blocker, was added to the endothelial cell medium in doses of 100 nM, 500 nM, 1000 nM, 1500 nM, and 2000 nM. […]"}, "[2]": {"tested_on": "dorsal root ganglion (DRG) neurons", "assay": "DRG axonal outgrowth and turning under slit-2 gradient after 5-FU treatment", "assay_type": "cell-based, mice", "method": "(§1) Primary hippocampal neurons and dorsal root ganglion (DRG) neurons cultured in the devices were obtained from embryonic day 14.5-16.5 mice as per protocols described in detail elsewhere (R. Li, Methods. Cell. Biol., 1998, 57, 167; W. E. Thomas, Life. Sci., 1986, 38, 297; A. V. Kwiatkowski, et al., Neuron, 2007, 56, 441). Cells from micro-dissected cortices were dissociated and resuspended in serum-free media at a final concentration of 10 million cells/mL. The neurons were seeded into the devices (n=10 devices per test condition) immediately after dissociation and cultured for 1-2 days, with serum-free media replaced in all the channels twice a day, before any guidance cue was introduced. All cell cultures were maintained in a humidified incubator at 5% CO2 and 37° C. For netrin-1 studies (FIGS. 11A-11C), hippocampal neurons were transfected using amaxa nucleofection, with a pmax-gfp plasmid cotransfected with a plasmid expressing DCC (deleted in colorectal cancer) receptor (M. J. Galko and M. Tessier-Lavigne, Science, 2000, 289, 1365).\n(§2) Netrin-1 added in the channel was obtained from multiple sources: lab-isolated (T. Serafini, et al., Cell, 1994, 78, 409) netrin-1 (0.1-10 μg/mL), and netrin-1 released from cDNA transfected stable fibroblast cell line (K. Löw, et al., J. Neurosci., 2008, 28, 1099). […] Brain pulp was prepared in the lab from fresh whole mouse brain tissues. Briefly, the brain tissue was homogenized with a rotor stator in a hypotonic solution supplemented with protease inhibitors (protease inhibitor cocktail; Roche, USA), filtered, total protein content measured using a Bradford protein assay, and diluted to […] concentration. […]\n(§3) Phase-contrast, fluorescence and confocal microscopy were used to characterize axonal distribution and quantify axonal turning in 3D collagen gels within the devices. […] The last 100 μm segment along the length of each axon leading to the growth cone was traced with NeuronJ (E. Meijering, et al., Cytometry. Part. A, 2004, 58, 167), and the angle this segment makes with the horizontal line (0°) was measured. […]"}, "[3]": {"tested_on": "hippocampal neurons", "assay": "Hippocampal axonal turning under guidance cue gradient in 3D collagen gel, spider microfluidic device", "assay_type": "cell-based, mice", "method": "as §1\nNetrin-1 added in the channel was obtained from multiple sources: lab-isolated (T. Serafini, et al., Cell, 1994, 78, 409) netrin-1 (0.1-10 μg/mL), and netrin-1 released from cDNA transfected stable fibroblast cell line (K. Löw, et al., J. Neurosci., 2008, 28, 1099). […] Brain pulp was prepared in the lab from fresh whole mouse brain tissues. Briefly, the brain tissue was homogenized with a rotor stator in a hypotonic solution supplemented with protease inhibitors (protease inhibitor cocktail; Roche, USA), filtered, total protein content measured using a Bradford protein assay, and diluted to […] concentration. The chemorepellant used was Slit-2 (62.5 or 250 ng/mL; R&D Systems, Minneapolis, Minn.)). For chemosensing studies, the medium was removed from all the ports after 24-48 h of cell seeding, and 350 μL medium containing known concentration of guidance cue was introduced in the chemoattractant channel, and 350 μL serum-free media in each of the remaining two channels. For the experiments with netrin-1 being released from fibroblasts, transfected fibroblasts (1×10^5 cells) were seeded in the chemoattractant channel (source), and normal fibroblasts (non-transfected, 1×10^5 cells) were seeded in the left channel (sink). […] Netrin-1 released from the transfected fibroblasts diffuses across the collagen-1 gel and creates a gradient. The medium was changed at regular intervals to maintain chemogradient at all times. The control devices which received no guidance cues were cultured in the same procedure as with test cases.\nas §3, with “devices. Florescent and phase contrast images were acquired with a Nikon TE300 microscope equipped with a Hamamatsu camera and Openlab image acquisition software. Axonal and nuclei staining were performed after fixation with 4% PFA (30 min).” for “devices.”"}, "[4]": {"tested_on": "dorsal root ganglion (DRG) neurons", "assay": "DRG neuron migration into 3D collagen scaffold under slit-2 gradient", "assay_type": "cell-based, mice", "conditions": "slit-2 250 ng/mL", "method": "as §1, §2, §3"}, "[5]": {"conditions": "slit-2 250 ng/mL in the right channel, n=64 axons"}}, "data": [{"molecule": "COc1cc2ncnc(Nc3ccc(F)c(Cl)c3)c2cc1OCCCN1CCOCC1", "note": "[Iressa]", "values": [{"measurement": "behaviour of A549 cancer aggregates", "setting": "[1]; 100 nM and 500 nM drug concentrations", "result": "cancer aggregates were seen to break up"}, {"measurement": "behaviour of A549 cancer aggregates", "setting": "[1]; 1000 nM, 1500 nM and 2000 nM drug concentrations", "result": "the cancer aggregates stayed intact"}, {"measurement": "minimum effective dose", "setting": "[1]; drug in endothelial cell medium, keeps A549 aggregates intact", "result": 1000, "unit": "nM"}]}, {"molecule": "O=c1[nH]cc(F)c(=O)[nH]1", "note": "[5-FU, 5-fluorourasil, reference compound]", "values": [{"measurement": "DRG cell migration into the scaffold", "setting": "[2]; 5-FU 10^−5 M seeded with DRG explants on day 0, 24 h culture", "result": "no cell migration into the scaffold was observed"}]}, {"molecule": "slit-2: chemorepellant guidance cue Slit-2 (R&D Systems) (protein, UniProt O94813 31-1529, looked up) Slit homolog 2 protein: QCSCSGSTVDCHGLALRSVPRNIPRNTERLDLNGNNITRITKTDFAGLRHLRVLQLMENKISTIERGAFQDLKELERLRLNRNHLQLFPELLFLGTAKLYRLDLSENQIQAIPRKAFRGAVDIKNLQLDYNQISCIEDGAFRALRDLEVLTLNNNNITRLSVASFNHMPKLRTFRLHSNNLYCDCHLAWLSDWLRQRPRVGLYTQCMGPSHLRGHNVAEVQKREFVCSGHQSFMAPSCSVLHCPAACTCSNNIVDCRGKGLTEIPTNLPETITEIRLEQNTIKVIPPGAFSPYKKLRRIDLSNNQISELAPDAFQGLRSLNSLVLYGNKITELPKSLFEGLFSLQLLLLNANKINCLRVDAFQDLHNLNLLSLYDNKLQTIAKGTFSPLRAIQTMHLAQNPFICDCHLKWLADYLHTNPIETSGARCTSPRRLANKRIGQIKSKKFRCSAKEQYFIPGTEDYRSKLSGDCFADLACPEKCRCEGTTVDCSNQKLNKIPEHIPQYTAELRLNNNEFTVLEATGIFKKLPQLRKINFSNNKITDIEEGAFEGASGVNEILLTSNRLENVQHKMFKGLESLKTLMLRSNRITCVGNDSFIGLSSVRLLSLYDNQITTVAPGAFDTLHSLSTLNLLANPFNCNCYLAWLGEWLRKKRIVTGNPRCQKPYFLKEIPIQDVAIQDFTCDDGNDDNSCSPLSRCPTECTCLDTVVRCSNKGLKVLPKGIPRDVTELYLDGNQFTLVPKELSNYKHLTLIDLSNNRISTLSNQSFSNMTQLLTLILSYNRLRCIPPRTFDGLKSLRLLSLHGNDISVVPEGAFNDLSALSHLAIGANPLYCDCNMQWLSDWVKSEYKEPGIARCAGPGEMADKLLLTTPSKKFTCQGPVDVNILAKCNPCLSNPCKNDGTCNSDPVDFYRCTCPYGFKGQDCDVPIHACISNPCKHGGTCHLKEGEEDGFWCICADGFEGENCEVNVDDCEDNDCENNSTCVDGINNYTCLCPPEYTGELCEEKLDFCAQDLNPCQHDSKCILTPKGFKCDCTPGYVGEHCDIDFDDCQDNKCKNGAHCTDAVNGYTCICPEGYSGLFCEFSPPMVLPRTSPCDNFDCQNGAQCIVRINEPICQCLPGYQGEKCEKLVSVNFINKESYLQIPSAKVRPQTNITLQIATDEDSGILLYKGDKDHIAVELYRGRVRASYDTGSHPASAIYSVETINDGNFHIVELLALDQSLSLSVDGGNPKIITNLSKQSTLNFDSPLYVGGMPGKSNVASLRQAPGQNGTSFHGCIRNLYINSELQDFQKVPMQTGILPGCEPCHKKVCAHGTCQPSSQAGFTCECQEGWMGPLCDQRTNDPCLGNKCVHGTCLPINAFSYSCKCLEGHGGVLCDEEEDLFNPCQAIKCKHGKCRLSGLGQPYCECSSGYTGDSCDREISCRGERIRDYYQKQQGYAACQTTKKVSRLECRGGCAGGQCCGPLRSKRRKYSFECTDGSSFVDEVEKVVKCGCTRCVS", "values": [{"measurement": "percentage of axons that turned away from the high concentration, 250 ng/mL versus 62.5 ng/mL", "setting": "[3]; increasing slit-2 from 62.5 ng/mL to 250 ng/mL, p<0.001", "result": "tripled"}, {"measurement": "chemorepellent effect on hippocampal axonal turning", "setting": "[3]; slit-2 62.5 ng/mL, n=51 axons", "result": "did not exhibit similar strong repellent characteristics"}, {"measurement": "percentage of axons in Q1 (towards guidance cue)", "setting": "[3]; [5]", "result": "18.2±4.5", "unit": "%"}, {"measurement": "percentage of axons in Q3 (away from guidance cue)", "setting": "[3]; [5]", "result": "42.6±9.1", "unit": "%"}, {"measurement": "enhancement of axonal turning down the gradient relative to controls which received no cues", "setting": "[3]; slit-2 250 ng/mL, p<0.001", "result": 3.4, "unit": "fold"}, {"measurement": "DRG neuron migration down the gradient, percentage in Q3", "setting": "[4]", "result": "74±12.5", "unit": "%"}, {"measurement": "increase in DRG neuron migration down the gradient relative to controls", "setting": "[4]; p<0.001 vs. controls", "result": 5, "unit": "fold"}, {"measurement": "increase in DRG neuron migration down the gradient relative to 62.5 ng/mL slit-2 gradient", "setting": "[4]; p<0.01", "result": 2.7, "unit": "fold"}, {"measurement": "percentage of DRG axons repelled", "setting": "[2]; slit-2 250 ng/mL in right hand channel after 24 h 5-FU, p<0.03 vs. controls", "result": "70±14.2", "unit": "%"}, {"measurement": "inhibition of DRG neuron axonal turning into Q1 relative to control cultures", "setting": "[2]; slit-2 250 ng/mL, p<0.05 vs. controls", "result": 56, "unit": "%"}]}]}
